Measured values taken from patent US20240076386A1 (Pfizer, published 2024).
Changes are numbered by the printed parent chain.

T1: cynomolgus monkey E-selectin, cell-surface expressed (cynomolgus monkey, UniProt P16581 22-610 (human entry))
T1 construct: also called CHO-cynomolgus monkey E-selectin cells; cynomolgus monkey CHO-E
T1 chain: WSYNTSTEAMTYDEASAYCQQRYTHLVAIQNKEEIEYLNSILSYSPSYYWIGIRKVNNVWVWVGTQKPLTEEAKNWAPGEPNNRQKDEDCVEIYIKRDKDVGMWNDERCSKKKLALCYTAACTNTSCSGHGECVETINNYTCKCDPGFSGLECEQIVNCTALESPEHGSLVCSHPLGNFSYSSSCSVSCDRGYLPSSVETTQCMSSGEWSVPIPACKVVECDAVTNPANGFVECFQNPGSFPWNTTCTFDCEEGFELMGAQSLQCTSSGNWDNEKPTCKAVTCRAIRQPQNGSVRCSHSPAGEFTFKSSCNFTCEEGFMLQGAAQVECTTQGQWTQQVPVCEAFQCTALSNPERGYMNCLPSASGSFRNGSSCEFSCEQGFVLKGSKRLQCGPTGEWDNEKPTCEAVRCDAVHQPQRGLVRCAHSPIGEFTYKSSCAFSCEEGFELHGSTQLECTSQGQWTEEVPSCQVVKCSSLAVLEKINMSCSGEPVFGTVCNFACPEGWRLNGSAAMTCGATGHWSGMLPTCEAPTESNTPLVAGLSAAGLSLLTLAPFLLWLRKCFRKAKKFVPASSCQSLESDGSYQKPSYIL

T2: human E-selectin extracellular domain with 10 His purification tail (human, UniProt P16581 22-556)
T2 construct: also called soluable human E-selectin extracellular domain; rhE-Selectin
T2 sequence: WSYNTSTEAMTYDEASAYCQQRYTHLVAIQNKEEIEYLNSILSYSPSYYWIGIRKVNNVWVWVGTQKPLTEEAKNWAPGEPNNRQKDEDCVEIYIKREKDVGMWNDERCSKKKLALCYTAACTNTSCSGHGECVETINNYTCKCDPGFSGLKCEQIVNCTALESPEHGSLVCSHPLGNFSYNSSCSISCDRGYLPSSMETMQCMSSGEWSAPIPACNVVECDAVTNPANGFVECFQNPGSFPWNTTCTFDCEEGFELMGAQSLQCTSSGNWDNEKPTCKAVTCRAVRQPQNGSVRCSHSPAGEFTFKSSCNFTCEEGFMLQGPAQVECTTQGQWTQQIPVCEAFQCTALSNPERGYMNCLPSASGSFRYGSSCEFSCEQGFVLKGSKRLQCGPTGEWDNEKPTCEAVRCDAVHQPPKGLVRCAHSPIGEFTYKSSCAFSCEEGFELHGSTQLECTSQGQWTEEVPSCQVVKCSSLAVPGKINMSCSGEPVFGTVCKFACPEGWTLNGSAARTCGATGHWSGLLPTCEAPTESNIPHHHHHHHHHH

T3: mouse E-selectin extracellular domain with 10 His purification tail (mouse, UniProt Q00690 22-557)
T3 construct: also called soluable mouse E-selectin extracellular domain; muE-Selctin
T3 sequence: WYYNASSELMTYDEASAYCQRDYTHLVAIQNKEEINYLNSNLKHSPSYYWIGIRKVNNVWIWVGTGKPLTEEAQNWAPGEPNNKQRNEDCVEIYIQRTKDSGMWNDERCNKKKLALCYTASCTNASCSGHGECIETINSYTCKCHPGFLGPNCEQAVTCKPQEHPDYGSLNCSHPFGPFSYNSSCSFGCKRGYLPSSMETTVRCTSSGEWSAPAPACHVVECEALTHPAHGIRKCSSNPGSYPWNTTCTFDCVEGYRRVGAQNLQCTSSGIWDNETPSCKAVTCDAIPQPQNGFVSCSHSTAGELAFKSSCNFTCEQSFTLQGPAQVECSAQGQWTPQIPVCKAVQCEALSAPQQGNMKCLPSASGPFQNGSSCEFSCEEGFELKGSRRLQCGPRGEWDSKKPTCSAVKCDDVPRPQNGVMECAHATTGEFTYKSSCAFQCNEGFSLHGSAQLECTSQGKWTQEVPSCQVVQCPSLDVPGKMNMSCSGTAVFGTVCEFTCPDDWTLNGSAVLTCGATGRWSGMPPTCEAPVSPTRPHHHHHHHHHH

B1: anti-E-selectin antibody 0158 chimera (antibody, human IgG1, kappa, V domains shown)
VH: QVQLKESGPGLVQPSETLSLTCTVSGFSISTYNVHWLRQPPGKGLEWMGMMWSGGSPDYNSALKSRLSISRDTSKNQVFLKMNSLQSEDTTTYYCARWGGGFDYWGQGVMVTVSS
VL: DIVLTQSPTTLSVTPGETVSLSCRASHSIGTNLHWYQQKTNESPRLLIKFTSQSISGIPSRFSASGSGTDFTLNINNVEFDDVSSYFCQQTQSWPLTFGSGTKLEIKR
notes: rat VH/VL on effector-null human IgG1 and human kappa
B2: anti-E-selectin antibody 0159 chimera (antibody, human IgG1, kappa, V domains shown)
VH: EVQLQQSGAELGKPGTSVKLSCKVSGYNIRSTYMHWVSQRPGKGLEWIGRIDPANGNTIYAEKFKRKATLTADTSSNTAYMQLSQLKSDDRAIYFCAMEVRVSFEYWGQGVMVTVSS
VL: DIQMTQSPSFLSASVGDRVTINCKASQNINKYLDWYQQKLGEGPKLLIYYTNNLHTGIPSRFSGSGSGTDFTLTISSLQPEDVATYFCLQHDSGYTFGAGTKLELKR
notes: as for B1
B3: anti-E-selectin antibody 0170 chimera (antibody, human IgG1, kappa, V domains shown)
VH: EVQLQQSGAELGKPGTSVKLSCKVSGYSIRSTYMHWVNQRPGKGLEWVGRIDPANGNTIYAERFKNKATLTADTSSNTAYMQLSQLKSDDTAIYFCAVEILGIFDYWGQGVMVTVSS
VL: B2 VL with N30D, G43A, I48M, Y50N, N53S, D92N
notes: as for B1
B4: anti-E-selectin antibody 0039 chimera (antibody, human IgG1, kappa, V domains shown)
VH: QVQLKETGPGLVQPTQTLSITCTVSGFSLTGYYMQWVRQTPGKGLEWMGFIRSSGSTEYNSEFKSRLSISRDTSKNQVFLKMNSLKTEDTGVYYCARCPYKYSSFVYVGVMDAWGQGAPVTVSS
VL: EIVMTQSPTSMSTSIGERVTLNCKASQTVGINVDWYQQTPGQPPKLLIYGASNRHTGVPDRFTGSGFGRDFTLTISNVEAEDLAVYCCLQYGSIPHTFGPGTKLELKR
notes: as for B1
B5: anti-E-selectin antibody 0180 chimera (antibody, human IgG1, kappa, V domains shown)
VH: EVQLQQSGAELGKPGTSVKLSCKVSGYKIRSSYMHWVNQRPGKGLEWIGRIDPANGNTIYGDKFKSKATLTSDTSSNTAYIQLSQLKSDDTAIYFCAIDIGTTFDYWGQGVMVTVSS
VL: DIQMTQSPSFLSASVGDRVTINCKASQHINRYLNWYQQKLGEAPKLLIYDANNLQTGIPSRFSGSGSGTDFTLTISSLQPEDVATYFCLQHNSWPNTFGAGTKLELKR
notes: as for B1
B6: anti-E-selectin antibody 0164 chimera (antibody, human IgG1, kappa, V domains shown)
VH: EVQLQQSGAEFGKPGTSVKLSCKVSGYNIRSSYMHWVNQRPGKGLEWIGRIDPANGNTIYAEKFKIKAILTADSSSNTAYMQLSQLKSDDTAIYFCAMDLYSTSEYWGQGVMVTVSS
VL: B5 VL with A25T, H28N, D50N, N53S, G64A, S76N, H91D, N96L, A100S, L106I
notes: as for B1

Molecular target: T1, cynomolgus monkey E-selectin, …
Assay: flow cytometry, CHO cells
Method: Cells were maintained in growth medium at 37° C., 5% CO₂ and 95% air in a humidified incubator. Methotrexate or Zeocin were removed from the medium prior to culture for experiments. CHO-E selectin cells or P-selectin cells were detached from T-150 flasks using citric saline (135 mM KCl, 15 mM sodium citrate) and immediately re-calcified with the addition of CaCl₂) to the detached cells to a final concentration of 1 mM. Growth media was immediately added to the detached cells, then centrifuged at 300×g for 5 minutes at room temperature to pellet the cells. Cells were plated into 96-well V-bottom plates in cold CHO buffer consisting of phosphate buffered saline (PBS), pH 7.4 containing bovine serum albumin (BSA; Sigma-Aldrich) at final concentration of 1%, calcium chloride at final concentration of 1 mM, and sodium azide at a final concentration of 0.1%, for 5 minutes on wet ice. After incubation, the cells were centrifuged at 300×g for 2 minutes at 4° C. to remove the buffer.
After incubation, antibodies were removed and the cells were washed three times by centrifugation at 300×g for 1 minute at 4° C. and resuspended in cold CHO buffer. The washed cells were incubated for 30 minutes on wet ice with 100 μL of a 1:1000 dilution of APC-conjugated AffiniPure F(ab′)₂ Fragment Goat Anti-human IgG, Fcγ (Jackson Imnnunoresearch). The cells were washed three or four times prior to resuspension in CHO buffer for flow cytometric analysis. A Becton Dickinson LSRFortessa instrument using 640 nanometer laser line was used to acquire cell fluorescence data. Geometric mean fluorescence of cells was analyzed by FlowJo software package (FlowJo, LLC) and plotted against antibody concentration. The estimated EC₅₀ values were calculated using nonlinear regression analysis in the Prism suite (GraphPad, version 8) (Table 8).

Row | EC50 [nM] | Binder
1 | 14 | B1
2 | 3.37 | B2
3 | 3.76 | B3
4 | 4.07 | B4
5 | 3.66 | B5
6 | 1.73 | B6

Molecular target: T2, human E-selectin extracellular domain …
Assay: antigen binding ELISA, HRP detection
Method: (§1) 384-well Maxisorp plates were used to capture the human and mouse His-tagged recombinant E-selectin polypeptides. The polypeptides were incubated with chimeric antibodies of varying concentrations and detected with HRP-labeled anti-human IgG1 antibodies.

Row | EC50 [nM] | Binder
7 | 0.03 | B1
8 | 0.02 | B2
9 | 0.01 | B3
10 | 0.02 | B4
11 | 0.01 | B5
12 | 0.02 | B6

Molecular target: T3, mouse E-selectin extracellular domain …
Assay: antigen binding ELISA, HRP detection
Method: as §1

Row | EC50 [nM] | Binder
13 | > 133 | B1
14 | > 133 | B2
15 | > 133 | B3
16 | > 133 | B4
17 | > 133 | B5
18 | > 133 | B6
